Reference: paper PMC4837482, “The complex binding mode of the peptide hormone H2 relaxin to its receptor RXFP1” (Nature Communications, 2016)
Positions count from the first letter of the chain named.

Tests used:
Assay in all cases: cAMP activity assay (pCRE β-galactosidase reporter), transfected HEK293T cells
Type in all cases: cell-based
[1] = target: T1, RXFP1 Y57A (Homo sapiens, UniProt Q9HBX9, Y79A); conditions: construct Y57A, ±s.e.m.
T1 construct: cells expressing full-length RXFP1 and mutants; expressed in transfected cells; host or cells: HEK293T
T1 sequence (Q9HBX9 23-757 Y79A limits assumed): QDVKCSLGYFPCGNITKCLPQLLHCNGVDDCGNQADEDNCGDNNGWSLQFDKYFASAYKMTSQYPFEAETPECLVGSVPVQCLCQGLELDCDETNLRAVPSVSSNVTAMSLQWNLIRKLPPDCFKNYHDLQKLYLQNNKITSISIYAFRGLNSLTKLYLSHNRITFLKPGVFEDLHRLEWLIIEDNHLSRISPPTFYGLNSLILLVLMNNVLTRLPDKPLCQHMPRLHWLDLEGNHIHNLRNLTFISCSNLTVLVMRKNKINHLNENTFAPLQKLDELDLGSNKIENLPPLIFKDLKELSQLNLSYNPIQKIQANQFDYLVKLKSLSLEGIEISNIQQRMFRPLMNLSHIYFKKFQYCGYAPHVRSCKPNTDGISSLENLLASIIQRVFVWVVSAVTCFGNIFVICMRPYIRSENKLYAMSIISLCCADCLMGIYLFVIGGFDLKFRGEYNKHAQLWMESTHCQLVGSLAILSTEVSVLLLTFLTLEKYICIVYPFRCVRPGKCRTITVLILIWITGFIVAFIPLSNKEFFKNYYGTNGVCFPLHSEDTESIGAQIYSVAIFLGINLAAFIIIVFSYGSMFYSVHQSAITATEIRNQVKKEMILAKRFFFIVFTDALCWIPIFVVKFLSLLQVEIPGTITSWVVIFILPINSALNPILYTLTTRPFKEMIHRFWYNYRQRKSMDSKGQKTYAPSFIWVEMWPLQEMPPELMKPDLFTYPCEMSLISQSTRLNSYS
In short: (§1)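 H2 relaxin dilutions in minimal media with 1% DMSO; 5 μM Forskolin as positive control, media/1% DMSO as negative. After freezing at −80 °C, cells lysed in pH 8.0 phosphate buffers and chlorophenol red-β-D-galactopyranoside added; absorbance read at 570 nm. Responses given as % of 5 μM Forskolin maximum.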

[2] = target: T2, RXFP1 S47L48-AA (Homo sapiens, UniProt Q9HBX9, L70A/S69A); conditions: construct S47L48-AA, ±s.e.m.
T2 construct: expressed in transfected cells; host or cells: HEK293T
T2 sequence (Q9HBX9 23-757 S69A/L70A limits assumed): T1 sequence (Q9HBX9 23-757 Y79A limits assumed) with S47A, L48A, A57Y
In short: as §1

[3] = target: T3, RXFP1 Y58A (Homo sapiens, UniProt Q9HBX9, Y80A); conditions: construct Y58A, ±s.e.m.
T3 construct: cells expressing full-length RXFP1 and mutants; expressed in transfected cells; host or cells: HEK293T
T3 sequence (Q9HBX9 23-757 Y80A limits assumed): T1 sequence (Q9HBX9 23-757 Y79A limits assumed) with A57Y, Y58A
In short: as §1

[4] = percentage of maximum response to 5 μM Forskolin

H2 relaxin: two-chain 6-kDa peptide hormone structurally related to insulin; recombinant human gene-2 H2 relaxin provided by Corthera
H2 relaxin pEC50 ([1]; cAMP reporter): 10.93±0.10 (5)
H2 relaxin Emax [1, 4]: 126.7±8.46 (5) %
H2 relaxin pEC50 ([2]; cAMP reporter): 11.07±0.17 (3)
H2 relaxin Emax [2, 4]: 120.9±10.9 (3) %
H2 relaxin pEC50 ([3]; cAMP reporter): 10.88±0.09 (3)
H2 relaxin Emax [3, 4]: 89.14±7.93 (3) %
